Values quoted from earlier work, collected in PMC11677424, “Early-Stage IM Treatment with the Host-Derived Immunostimulant CPDI-02 Increases Curative Protection of Healthy Outbred Mice Against Subcutaneous Infection with Community-Acquired Methicillin-Resistant Staphylococcus aureus USA300” (Pharmaceutics, 2024).

How the values were obtained:
[1] = system: primary human mononuclear phagocytes (MPs); conditions: primary human MPs; cited from earlier work
Excerpt: (§1) Complement Peptide-Derived Immunostimulant-02 (CPDI-02) (formerly EP67) is a novel, second-generation host-derived decapeptide agonist of […] (C5) Receptor 1 (C5aR1/C5a1R/CD88), which is based on the C-terminal pharmacophore of human Complement Peptide C5a (hC5a).

[2] = system: primary human neutrophils (NPs); conditions: cited from earlier work
Excerpt: as §1

B1: hC5a: human Complement Peptide C5a, the parent molecule of CPDI-02 (protein, UniProt P01031 678-751, looked up)
C5a anaphylatoxin: TLQKKIEEIAAKYKHSVVKKCCYDGACVNNDETCEQRAARISLGPRCIKAFTECCVVASQLRANISHKDMQLGR
modifications: C5a anaphylatoxin
EC50 [1]: ~7 nM
EC50 [2]: ~7 nM
